Results from the supplement of paper PMC9732359.
± gives the uncertainty stated by the source.

Assay: protein stability index of a GFP-peptide fusion (yeast GPS) (PSI 1-4); higher = more stable; sorted into four equal gates, so the index is relative within each strain
Summary of the method: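 For each peptide, the protein stability index sums the read frequency in every gate after multiplying it by the gate number. Read frequencies came from plasmids that were PCR-amplified from each gate and Illumina-sequenced, with reads assigned to strains by barcodes. The gates were four equal bins of GFP/Cherry fluorescence ratio applied to mid-log yeast in leucine-free medium carrying a pooled library of tiled 17-residue yeast protein peptides fused downstream of GFP on a Cherry-expressing plasmid.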

| Sequence | protein stability index (doa10∆) | protein stability index (pdr5∆) | protein stability index (san1∆) | protein stability index (ubr1∆) |
| --- | --- | --- | --- | --- |
| IAAIIGRLNTLVISLAA [IRR1] | 2.1 ± 0.035 | 1.99 ± 0.036 | 2.31 ± 0.052 | 1.77 ± 0.03 |
| FIRVIGSELVQKYVGEG [RPT1] | 2.59 ± 0.21 | 2.57 ± 0.076 | 3 ± 0.083 | 2.84 ± 0.05 |
| LNLNNSELQPQNRSLQE [SNF2] | 3.24 ± 0.046 | 3.31 ± 0.057 | 3.31 ± 0.08 | 3.27 ± 0.055 |
| VSCYRPRRDGERKRKSV [RPS6A] | 1.79 ± 0.22 | 2.91 ± 0.17 | 3.51 ± 0.13 | 3.38 ± 0.082 |
| MSVERGIRWELISRLCP [RPT1] | 1.73 ± 0.052 | 2.17 ± 0.048 | 1.88 ± 0.07 | 1.93 ± 0.034 |
| EMIRGRSPEEIRRTFNI [SKP1] | – | – | – | 2.34 ± 0.28 |
| SVRLQRFYQLGVDLKLK [CSN12] | 3.2 ± 0.21 | 3.13 ± 0.23 | 3.01 ± 0.24 | 3.06 ± 0.12 |
| SLTQSVCDLALRFGEGA [PUP2] | 2.66 ± 0.19 | 3.34 ± 0.21 | – | 3.11 ± 0.21 |
| VVSLKEGMFANANRVFR [SMC2] | 2.84 ± 0.071 | 3.11 ± 0.11 | 3.26 ± 0.06 | 3.18 ± 0.062 |
| YYNPQAGTKITICIELK [RGR1] | 2.16 ± 0.13 | 2.24 ± 0.23 | 2.1 ± 0.13 | 2.48 ± 0.1 |
| KDQIQAGKWFDPVLDWR [SIR4] | 3.56 ± 0.14 | 3.49 ± 0.094 | 2.95 ± 0.19 | 3.22 ± 0.07 |
| APIKKIIERYIKSKADA [PRP8] | 3.11 ± 0.12 | 3.24 ± 0.12 | 2.98 ± 0.079 | 3.13 ± 0.11 |
| DSEERDPKLEKCLNYRN [ITC1] | 2.85 ± 0.07 | 2.74 ± 0.088 | 2.71 ± 0.061 | 2.49 ± 0.038 |
| LEIAKDFQPTELFDILS [IRR1] | 3.07 ± 0.13 | 2.33 ± 0.11 | 2.8 ± 0.079 | 3.08 ± 0.086 |
| QVIKNEVCAKMPNIELY [SSN2] | 2.83 ± 0.076 | 2.81 ± 0.058 | 2.7 ± 0.074 | 2.35 ± 0.06 |
| VKRYRLAPTQLSAEYLV [SIN4] | 2.44 ± 0.062 | 2.23 ± 0.056 | 2.3 ± 0.067 | 2.71 ± 0.043 |
| AQSRNVEIEKRILKLGT [YGR119C/NUP57] | 3.33 ± 0.082 | 3.15 ± 0.071 | 3.33 ± 0.077 | 3.34 ± 0.078 |
| TGLLIARRTLQKLGLDE [RPL5] | 3.2 ± 0.13 | 3.05 ± 0.17 | 3.39 ± 0.094 | 3.18 ± 0.16 |
| KHAEFDLSLLGYCDDIA [SIR2] | 3 ± 0.088 | 2.68 ± 0.066 | 2.99 ± 0.056 | 2.32 ± 0.063 |
| PSQGVHYKVPTDTSTTA [MED6] | 2.34 ± 0.043 | 2.84 ± 0.046 | 2.37 ± 0.06 | 2.76 ± 0.037 |
| SHPEKRMIPPRMVRSIM [SSN3] | 3.25 ± 0.1 | 3.01 ± 0.075 | 2.33 ± 0.065 | 3.19 ± 0.066 |
| MTYKNKLTVCFDDILKV [MED2] | 2.13 ± 0.048 | 2 ± 0.041 | 1.9 ± 0.071 | 2.08 ± 0.033 |
| TPQQLQMIQQRHQQLLR [SNF5] | 1.9 ± 0.044 | 2.32 ± 0.045 | 2.04 ± 0.052 | 1.74 ± 0.045 |
| DQTFPINCNKETIENVK [ECM29] | 3.17 ± 0.082 | 2.93 ± 0.099 | 3.08 ± 0.07 | 3.4 ± 0.088 |
| LIQQVPPGLDALVKPET [CDC53] | 3.02 ± 0.12 | 2.98 ± 0.13 | 2.83 ± 0.13 | 3.24 ± 0.14 |
| WNVEKFKKDFEVNISSL [RPC40] | 2.03 ± 0.11 | 2.98 ± 0.12 | 2.6 ± 0.084 | 2.59 ± 0.082 |
| IDLDHKRFLILQGEVEN [SMC4] | 1.58 ± 0.073 | 2.09 ± 0.087 | 1.81 ± 0.09 | 2.46 ± 0.057 |

| Sequence | protein stability index (doa10∆) | protein stability index (pdr5∆) | protein stability index (san1∆) | protein stability index (ubr1∆) |
| --- | --- | --- | --- | --- |
| QLAVRAPKGQNTLILRG [RPL18A] | 2.86 ± 0.28 | – | – | – |
| KLFNRIVERETNWIIYP [CSN12] | 2.81 ± 0.19 | 3.48 ± 0.24 | 2.85 ± 0.21 | – |
| RNEKRMFLEFQSTQTDL [SMC2] | 2.53 ± 0.19 | 2.48 ± 0.19 | 3.24 ± 0.14 | 2.61 ± 0.12 |
| QVLMDINTLNGGSSDTA [GAL11] | 3.29 ± 0.074 | 3.22 ± 0.072 | 3.15 ± 0.061 | 3.1 ± 0.061 |
| KHKKKHLKHENANDETT [RPB4] | 2.92 ± 0.053 | 2.84 ± 0.085 | 2.84 ± 0.11 | 3.19 ± 0.074 |
| PNVFDKDSYVRIANIEQ [YDL088C/ASM4] | 3 ± 0.093 | 3.09 ± 0.047 | 3.04 ± 0.07 | 3.22 ± 0.051 |
| TKEELESDGRMFIEEPT [SRP54] | 2.58 ± 0.091 | 3.11 ± 0.14 | 2.96 ± 0.099 | 2.71 ± 0.055 |
| YMVSRAIRDGVIEAKIN [RPN3] | – | 3.28 ± 0.17 | 2.95 ± 0.12 | 2.8 ± 0.15 |
| NVKVIMATNRADTLDPA [RPT3] | 2.67 ± 0.1 | 2.07 ± 0.086 | 1.94 ± 0.22 | 2.44 ± 0.057 |
| KDLQENLLVLRGKNEII [RPO21] | 1.31 ± 0.077 | 1.52 ± 0.056 | 1.6 ± 0.12 | 1.58 ± 0.071 |
| RRSTPFSKIAEYYRIQK [ESC2] | 2.77 ± 0.071 | 2.9 ± 0.094 | 2.72 ± 0.078 | 2.94 ± 0.11 |
| NATANATANATANATAE [SNF11] | 3.15 ± 0.04 | 3.33 ± 0.042 | 3.18 ± 0.042 | 3.325 ± 0.03 |
| KRSMDAEQLGHASKRHK [RPP1] | 2.54 ± 0.058 | 2.79 ± 0.056 | 2.68 ± 0.056 | 2.61 ± 0.054 |
| TRSLKYGKLRNGMFCQV [RRP4] | 1.42 ± 0.081 | 1.11 ± 0.1 | 1.09 ± 0.13 | 1.07 ± 0.12 |
| NKDSIEECGRTIHRSFT [CSN12] | 3.21 ± 0.067 | 3.13 ± 0.066 | 3.28 ± 0.043 | 3.12 ± 0.046 |
| REQHIDTICQSIQEQIQ [SNF5] | 3.12 ± 0.068 | 3.25 ± 0.11 | 3.25 ± 0.053 | 3.3 ± 0.068 |
| TYKYPSLKGVDPKFRRN [RPL29] | 3.03 ± 0.11 | 2.88 ± 0.25 | 2.97 ± 0.12 | 3.12 ± 0.09 |
| NHMLIDSLNQLEIRNKI [RGR1] | 2.97 ± 0.097 | 3.04 ± 0.069 | 2.92 ± 0.079 | 3.08 ± 0.076 |
| NLTYYNEKLECISLGST [ITC1] | 2.2 ± 0.061 | 2.39 ± 0.044 | 2.32 ± 0.044 | 2.45 ± 0.04 |
| VIFNDNVTETYSVYLIH [SIR3] | 2.35 ± 0.12 | 2.42 ± 0.09 | 2.72 ± 0.072 | 2.28 ± 0.12 |
| ISNKDVIFKIRDRTSGQ [SRB4] | 3.42 ± 0.11 | 3.02 ± 0.13 | 3.42 ± 0.077 | 3.14 ± 0.11 |
| LESFQAVYNKLTGKQIV [RPS7A] | 1.68 ± 0.055 | 1.32 ± 0.044 | 1.28 ± 0.098 | 1.53 ± 0.052 |
| QRTLSKSFYSTATGAAS [CYT1] | 1.98 ± 0.06 | 2.39 ± 0.054 | 2.43 ± 0.068 | 2.39 ± 0.048 |
| LIETVFVKNIRMLSFED [RPN9] | 2.19 ± 0.044 | 1.89 ± 0.05 | 1.78 ± 0.066 | 1.97 ± 0.041 |
| PGPRLLYENIASSPIIL [RPN10] | 2.1 ± 0.03 | 2.29 ± 0.038 | 2.2 ± 0.057 | 2.12 ± 0.028 |
| KTCAKSVIQLCGGINDS [ECM29] | 3.43 ± 0.26 | – | – | – |
| VVAKLEDKRKVRSAEYY [RPL16B] | 3.49 ± 0.1 | 3.58 ± 0.11 | 3.15 ± 0.12 | 3.37 ± 0.14 |
